From PMC6726447

Target: HAdV-D26 fiber knob protein (human adenovirus type 26 (HAdV-D26))
Assay: crystal structure; HAdV-D26K crystals (PACT Premier B01 and B04, pH 4.0 and pH 8.0) soaked in 10 mM Neu5Ac; cubic space group, biological trimer assembled from it

HAdV-D26 fiber knob protein (domain or fragment)
stoichiometry N: 3
